Measurements from patent US20020197616A1 (REGENTS OF THE UNIVERSITY OF MICHIGAN, published 2002).
Each block holds one binder with its values, some of them ahead of it.

Legend:
[1] = biological target: the molecule itself; experiment: method not described ('our observations'); self-association
[2] = biological target: T1, Nod2 (wild-type, HA-tagged) (human, UniProt Q9HC29 1-1040); experiment: co-immunoprecipitation, HEK293T extracts
T1 construct: Expressed in HEK293T cells and tested in cell extracts by co-immunoprecipitation; also called Nod2a; wt Nod2; not shown: HA tag; the plasmid is named both pcDNA3-Nod2-HA and pcDNA3-HA-Nod2, so the end that carries the ta
From the text: Proteins co-immunoprecipitated with anti-HA antibody were detected with anti-Flag antibody. […] Proteins in total lysate were detected by anti-Flag and anti-HA monoclonal antibody, respectively. […]

B1: Nod2 lacking the LRRs (1-744) (other)
chain: MGEEGGSASHDEEERASVLLGHSPGCEMCSQEAFQAQRSQLVELLVSGSLEGFESVLDWLLSWEVLSWEDYEGFHLLGQPLSHLARRLLDTVWNKGTWACQKLIAAAQEAQADSQSPKLHGCWDPHSLHPARDLQSHRPAIVRRLHSHVENMLDLAWERGFVSQYECDEIRLPIFTPSQRARRLLDLATVKANGLAAFLLQHVQELPVPLALPLEAATCKKYMAKLRTTVSAQSRFLSTYDGAETLCLEDIYTENVLEVWADVGMAGPPQKSPATLGLEELFSTPGHLNDDADTVLVVGEAGSGKSTLLQRLHLLWAAGQDFQEFLFVFPFSCRQLQCMAKPLSVRTLLFEHCCWPDVGQEDIFQLLLDHPDRVLLTFDGFDEFKFRFTDRERHCSPTDPTSVQTLLFNLLQGNLLKNARKVVTSRPAAVSAFLRKYIRTEFNLKGFSEQGIELYLRKRHHEPGVADRLIRLLQETSALHGLCHLPVFSWMVSKCHQELLLQEGGSPKTTTDMYLLILQHFLLHATPPDSASQGLGPSLLRGRLPTLLHLGRLALWGLGMCCYVFSAQQLQAAQVSPDDISLGFLVRAKGVVPGSTAPLEFLHITFQCFFAAFYLALSADVPPALLRHLFNCGRPGNSPMARLLPTMCIQASEGKDSSVAALLQKAEPHNLQITAAFLAGLLSREHWGLLAECQTSEKALLRRQACARWCLARSLRKHFHSIPPAAPGEAKSVHAMPGFIWLIR
notes: also called Nod2ΔLRR; Nod2 (1-744)
- binding result [1]: binds

- binding result [2]: no binding
B2: Bcl-10 (other, UniProt O95999 1-233, looked up)
chain: MEPTAPSLTEEDLTEVKKDALENLRVYLCEKIIAERHFDHLRAKKILSREDTEEISCRTSSRKRAGKLLDYLQENPKGLDTLVESIRREKTQNFLIQKITDEVLKLRNIKLEHLKGLKCSSCEPFPDGATNNLSRSNSDESNFSEKLRASTVMYHPEGESSTTPFFSTNSSLNLPVLEVGRTENTIFSSTTLPRPGDPGAPPLPPDLQLEEEGTCANSSEMFLPLRSRTVSRQ
notes: Construct and tag not described
